Reference: paper PMC7400510, “Molecular basis of the lipid-induced MucA-MucB dissociation in Pseudomonas aeruginosa” (Communications Biology, 2020)

What was measured:
MucB (pET22b-MucB-6His) [1] = biological target: T1, MucB (pET22b-MucB-6His) (P. aeruginosa, UniProt P38108 22-316); assay: ITC
T1 chain: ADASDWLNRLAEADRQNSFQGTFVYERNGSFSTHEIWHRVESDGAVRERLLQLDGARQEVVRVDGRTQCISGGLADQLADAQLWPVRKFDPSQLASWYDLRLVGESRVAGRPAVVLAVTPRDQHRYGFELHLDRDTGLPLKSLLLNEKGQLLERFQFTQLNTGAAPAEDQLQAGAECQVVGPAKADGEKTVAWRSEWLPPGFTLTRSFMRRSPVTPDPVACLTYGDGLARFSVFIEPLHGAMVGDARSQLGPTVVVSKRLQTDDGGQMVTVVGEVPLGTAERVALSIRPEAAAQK

MucB (pET22b-MucB-6His) [2] = biological target: T2, MucB (pET22b-MucB-6His) (P. aeruginosa, UniProt P38108 22-316); assay: ITC; MucB (20 µM) in the sample cell titrated with MucA^peri (200 µM), 19 injections; 25 mM Tris–HCl (pH 7.5), 150 mM NaCl, 25 °C; settings: both partners purified
T2 construct: source: E. coli BL21 (DE3), purified (Ni–NTA, Superdex-75)
T2 sequence: T1 chain

B1: periplasmic region of MucA (MucA^peri: residues 106–194), with His-tag (domain or fragment)
chain: YNQNDALPQMAQQGTTPQIALPQVKGPAVLAGYSEEQGAPQVITNSSSSDTRWHEQRLPIYLRQHVQQSAVSGTESALPYARAASLENR
notes: also called periplasmic domain of MucA; source: E. coli BL21 (DE3), purified (Ni–NTA, Superdex-75); not shown: His6, C-terminal, kept
Ka (MucB (pET22b-MucB-6His) [1]): 633000 M⁻¹ | Kd (MucB (pET22b-MucB-6His) [2]): 1500 nM
